Article PMC7988105, “Canonical versus non-canonical transsynaptic signaling of neuroligin 3 tunes development of sociality in mice” (Nature Communications, 2021)

B1: NRXN1β (lacking SS4) used for ITC (domain or fragment)
chain: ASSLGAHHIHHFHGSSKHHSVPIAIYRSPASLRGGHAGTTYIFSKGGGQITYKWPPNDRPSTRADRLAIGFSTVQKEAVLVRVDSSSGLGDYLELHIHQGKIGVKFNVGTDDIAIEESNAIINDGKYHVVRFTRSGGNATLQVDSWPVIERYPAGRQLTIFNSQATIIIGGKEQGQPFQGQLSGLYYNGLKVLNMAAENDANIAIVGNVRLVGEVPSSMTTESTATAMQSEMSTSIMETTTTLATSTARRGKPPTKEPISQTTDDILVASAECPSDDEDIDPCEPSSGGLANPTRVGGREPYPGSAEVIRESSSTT
B2: mouse NLGN3 ECD (residues 35–684) with C-terminal His6 tag (domain or fragment, UniProt Q8BYM5 35-684, looked up)
chain: QAPAPTVNTHFGKLRGARVPLPSEILGPVDQYLGVPYAAPPIGEKRFLPPEPPPSWSGIRNATHFPPVCPQNIHTAVPEVMLPVWFTANLDIVATYIQEPNEDCLYLNVYVPTEDGSGAKKQGEDLADNDGDEDEDIRDSGAKPVMVYIHGGSYMEGTGNMIDGSVLASYGNVIVITLNYRVGVLGFLSTGDQAAKGNYGLLDQIQALRWVSENIAFFGGDPRRITVFGSGIGASCVSLLTLSHHSEGLFQRAIIQSGSALSSWAVNYQPVKYTSLLADKVGCNVLDTVDMVDCLRQKSAKELVEQDIQPARYHVAFGPVIDGDVIPDDPEILMEQGEFLNYDIMLGVNQGEGLKFVEGVVDPEDGVSGTDFDYSVSNFVDNLYGYPEGKDTLRETIKFMYTDWADRDNPETRRKTLVALFTDHQWVEPSVVTADLHARYGSPTYFYAFYHHCQSLMKPAWSDAAHGDEVPYVFGVPMVGPTDLFPCNFSKNDVMLSAVVMTYWTNFAKTGDPNKPVPQDTKFIHTKANRFEEVAWSKYNPRDQLYLHIGLKPRVRDHYRATKVAFWKHLVPHLYNLHDMFHYTSTTTKVPPPDTTHSSHITRRPNGKTWSTKRPAISPAYSNENAPGSWNGDQDAGPLLVENPRDYSTE
notes: mouse neuroligin 3, NLGN3A isoform, extracellular domain; Dimer by SEC-MALS and in both crystals; also called apo-NLGN3 ECD; wild-type NLGN3; not shown: His6, C-terminal, kept

How the values were obtained:
[1] = target: T1, NLGN3 ECD MF/IS mutant (M614I F615S) with His6 tag (mouse, UniProt Q8BYM5 35-684, M614I | F615S); test: ITC; NLGN3 ECD (20 µM) in the cell, NRXN1β (200 µM) injected; 20 mM Tris-HCl pH 8.0, 150 mM NaCl, 1 mM CaCl2, 25 °C; one-site model; settings: both partners purified
T1 construct: mouse neuroligin 3, NLGN3A isoform, extracellular domain (gene for residues 1–684 expressed and secreted), mutated; also called NLGN3-MF/IS; not shown: His6, C-terminal, kept

[2] = target: B2; test: as above; settings: both partners purified
[3] = target: the molecule itself; test: SEC-MALS; NLGN3 ECD wild-type at 1.5 g/L or R/C mutant at 1.1 g/L on ENrich SEC 650, 20 mM Tris-HCl pH 7.5, 150 mM NaCl

B1
Kd [1]: 2300 nM | Kd [2]: 1800 nM

B2
stoichiometry N [3]: 2
